B1: IRX6 (parent)
chain: YPCLEKPRIWSLAHTATASAVEGA
B2: SNAP91 (parent)
chain: FGGSFMAPSPSPVTPAQNNLLQPN

Variants of: B1
Test: protein stability index of a GFP-peptide fusion (GPS, HEK-293T) (PSI 1-6); higher = more stable
Conditions: c terminus: a fixed tail appended
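Note: lentivirally expressed fusions sorted by FACS into six bins by GFP to DsRed ratio, PSI derived from sequencing read proportions per bin multiplied by bin number.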

| Variant | protein stability index |
| --- | --- |
| YPCLEKPRIWSLAHTATASAVEIA [G23I] | 3.44 |
| YPCLEKPRIWSLAHTATASAVELA [G23L] | 2.7 |
| YPCLEKPRIWSLAHTATASAVENA [G23N] | 2.68 |
| YPCLEKPRIWSLAHTATASAVEQA [G23Q] | 1.25 |
| YPCLEKPRIWSLAHTATASAVESA [G23S] | 2.13 |
| YPCLEKPRIWSLAHTATASAVETA [G23T] | 2.95 |
| YPCLEKPRIWSLAHTATASAVEVA [G23V] | 3.24 |
| YPCLEKPRIWSLAHTATASAVEWA [G23W] | 1.98 |
| YPCLEKPRIWSLAHTATASAVEYA [G23Y] | 3.63 |
| YPCLEKPRIWSLAHTATASAVEGC [A24C] | 2.18 |
| YPCLEKPRIWSLAHTATASAVEGD [A24D] | 2.95 |
| YPCLEKPRIWSLAHTATASAVEGE [A24E] | 2.22 |
| YPCLEKPRIWSLAHTATASAVEGH [A24H] | 3.03 |
| YPCLEKPRIWSLAHTATASAVEGI [A24I] | 3.09 |
| YPCLEKPRIWSLAHTATASAVEGK [A24K] | 3.48 |
| YPCLEKPRIWSLAHTATASAVEGM [A24M] | 2.52 |
| YPCLEKPRIWSLAHTATASAVEGR [A24R] | 2.99 |
| YPCLEKPRIWSLAHTATASAVEGS [A24S] | 1.91 |
| YPCLEKPRIWSLAHTATASAVEGV [A24V] | 3.01 |
| YPCLEKPRIWSLAHTATASAVEGW [A24W] | 2.31 |
| YPCLEKPRIWSLAHTATASAVEGY [A24Y] | 3.06 |

Variants of: B2
Test: as above
Conditions: c terminus: a fixed tail appended

| Variant | protein stability index |
| --- | --- |
| IGGSFMAPSPSPVTPAQNNLLQPN [F1I] | 3.99 |
| NGGSFMAPSPSPVTPAQNNLLQPN [F1N] | 3.94 |
| FRGSFMAPSPSPVTPAQNNLLQPN [G2R] | 3.23 |
| FYGSFMAPSPSPVTPAQNNLLQPN [G2Y] | 2.53 |
| FGDSFMAPSPSPVTPAQNNLLQPN [G3D] | 2.7 |
| FGNSFMAPSPSPVTPAQNNLLQPN [G3N] | 3.1 |
| FGTSFMAPSPSPVTPAQNNLLQPN [G3T] | 2.44 |
| FGVSFMAPSPSPVTPAQNNLLQPN [G3V] | 2.37 |
| FGGSAMAPSPSPVTPAQNNLLQPN [F5A] | 3.83 |
| FGGSIMAPSPSPVTPAQNNLLQPN [F5I] | 4.03 |
| FGGSFRAPSPSPVTPAQNNLLQPN [M6R] | 2.24 |
| FGGSFVAPSPSPVTPAQNNLLQPN [M6V] | 2.08 |
| FGGSFMDPSPSPVTPAQNNLLQPN [A7D] | 1.91 |
| FGGSFMEPSPSPVTPAQNNLLQPN [A7E] | 2.06 |
| FGGSFMHPSPSPVTPAQNNLLQPN [A7H] | 3 |
| FGGSFMLPSPSPVTPAQNNLLQPN [A7L] | 1.87 |
| FGGSFMQPSPSPVTPAQNNLLQPN [A7Q] | 2.59 |
| FGGSFMVPSPSPVTPAQNNLLQPN [A7V] | 2.54 |
| FGGSFMAASPSPVTPAQNNLLQPN [P8A] | 1.54 |
| FGGSFMACSPSPVTPAQNNLLQPN [P8C] | 1.64 |
| FGGSFMADSPSPVTPAQNNLLQPN [P8D] | 2.25 |
| FGGSFMAESPSPVTPAQNNLLQPN [P8E] | 2.24 |
| FGGSFMAFSPSPVTPAQNNLLQPN [P8F] | 2.53 |
| FGGSFMAGSPSPVTPAQNNLLQPN [P8G] | 2.67 |
| FGGSFMAHSPSPVTPAQNNLLQPN [P8H] | 2 |

| Variant | protein stability index |
| --- | --- |
| FGGSFMALSPSPVTPAQNNLLQPN [P8L] | 3.22 |
| FGGSFMAMSPSPVTPAQNNLLQPN [P8M] | 4.32 |
| FGGSFMANSPSPVTPAQNNLLQPN [P8N] | 2.42 |
| FGGSFMAQSPSPVTPAQNNLLQPN [P8Q] | 2.92 |
| FGGSFMARSPSPVTPAQNNLLQPN [P8R] | 1.85 |
| FGGSFMASSPSPVTPAQNNLLQPN [P8S] | 2.89 |
| FGGSFMATSPSPVTPAQNNLLQPN [P8T] | 3.12 |
| FGGSFMAVSPSPVTPAQNNLLQPN [P8V] | 2.41 |
| FGGSFMAWSPSPVTPAQNNLLQPN [P8W] | 3.12 |
| FGGSFMAYSPSPVTPAQNNLLQPN [P8Y] | 3.9 |
| FGGSFMAPEPSPVTPAQNNLLQPN [S9E] | 1.89 |
| FGGSFMAPKPSPVTPAQNNLLQPN [S9K] | 1.76 |
| FGGSFMAPMPSPVTPAQNNLLQPN [S9M] | 2.31 |
| FGGSFMAPQPSPVTPAQNNLLQPN [S9Q] | 1.43 |
| FGGSFMAPRPSPVTPAQNNLLQPN [S9R] | 1.89 |
| FGGSFMAPVPSPVTPAQNNLLQPN [S9V] | 1.62 |
| FGGSFMAPWPSPVTPAQNNLLQPN [S9W] | 3.59 |
| FGGSFMAPSASPVTPAQNNLLQPN [P10A] | 4.52 |
| FGGSFMAPSCSPVTPAQNNLLQPN [P10C] | 2.45 |
| FGGSFMAPSDSPVTPAQNNLLQPN [P10D] | 2.72 |
| FGGSFMAPSESPVTPAQNNLLQPN [P10E] | 1.22 |
| FGGSFMAPSFSPVTPAQNNLLQPN [P10F] | 2.89 |
| FGGSFMAPSGSPVTPAQNNLLQPN [P10G] | 2.18 |
| FGGSFMAPSHSPVTPAQNNLLQPN [P10H] | 2.52 |
| FGGSFMAPSKSPVTPAQNNLLQPN [P10K] | 3.1 |

| Variant | protein stability index |
| --- | --- |
| FGGSFMAPSLSPVTPAQNNLLQPN [P10L] | 2.55 |
| FGGSFMAPSMSPVTPAQNNLLQPN [P10M] | 3.19 |
| FGGSFMAPSNSPVTPAQNNLLQPN [P10N] | 1.51 |
| FGGSFMAPSQSPVTPAQNNLLQPN [P10Q] | 2.7 |
| FGGSFMAPSRSPVTPAQNNLLQPN [P10R] | 1.13 |
| FGGSFMAPSSSPVTPAQNNLLQPN [P10S] | 2.49 |
| FGGSFMAPSVSPVTPAQNNLLQPN [P10V] | 1.58 |
| FGGSFMAPSWSPVTPAQNNLLQPN [P10W] | 2.51 |
| FGGSFMAPSYSPVTPAQNNLLQPN [P10Y] | 2.38 |
| FGGSFMAPSPEPVTPAQNNLLQPN [S11E] | 2.38 |
| FGGSFMAPSPKPVTPAQNNLLQPN [S11K] | 1.98 |
| FGGSFMAPSPLPVTPAQNNLLQPN [S11L] | 2.84 |
| FGGSFMAPSPMPVTPAQNNLLQPN [S11M] | 2.83 |
| FGGSFMAPSPQPVTPAQNNLLQPN [S11Q] | 3.14 |
| FGGSFMAPSPRPVTPAQNNLLQPN [S11R] | 1.68 |
| FGGSFMAPSPVPVTPAQNNLLQPN [S11V] | 3.42 |
| FGGSFMAPSPSAVTPAQNNLLQPN [P12A] | 2 |
| FGGSFMAPSPSCVTPAQNNLLQPN [P12C] | 2.72 |
| FGGSFMAPSPSDVTPAQNNLLQPN [P12D] | 1.8 |
| FGGSFMAPSPSEVTPAQNNLLQPN [P12E] | 1.77 |
| FGGSFMAPSPSFVTPAQNNLLQPN [P12F] | 1.62 |
| FGGSFMAPSPSGVTPAQNNLLQPN [P12G] | 1.72 |
| FGGSFMAPSPSHVTPAQNNLLQPN [P12H] | 2.53 |
